These results are taken from patent US20230256092A1, “COMBINED USE OF ANTI-CCR8 ANTIBODY AND CHEMOTHERAPEUTIC AGENT” (Shionogi & Co., Ltd., priority 2020, published 2023).

Positions count from the first letter of the chain named. Numbers in names are those of the source.

For the assay, the target named is T1, human CCR8 (Homo sapiens, UniProt P51685).
T1 construct: expressed in transfected cells; host or cells: 293 cells
Description: Neutralizing activity: inhibition of Ca2+ influx by 200 nM hCCL1 in human CCR8 expressing 293 cells (FLIPR), Test Example 6. The class given is cell-based. The following applies: Table 9; WT IC50/mutant IC50; humanized 10A11 heavy chain CDR mutants, IGKV4-1/IGHV3-73. As to the method: The antibody dilution diluted with a medium was added to human CCR8 expressing 293 cells in which a Ca^2+ indicator was incorporated beforehand, and Ca^2+ influx by addition of 200 nM hCCL1 (manufactured by BioLegend) was measured with FLIPR. […] The evaluation was performed at least three times, and IC50 was expressed as average±SD.

B1: h10A11 (IGKV4-1/IGHV3-73 R50K): humanized 10A11 heavy chain CDR point mutant (antibody, V domains shown)
VL: DIVMTQSPDSLAVSLGERATINCRSSKSLLHSNGNTYLYWYQQKPGQPPKLLIYRMSNLASGVPDRFSGSGSGTDFTLTISSLQAEDVAVYYCMQHLEYPLTFGQGTKLEIKRT
VH: EVQLVESGGGLVQPGGSLKLSCAASGFAFNTYALYWVRQASGKGLEWVGKIRSKSNNYATYYADSVKDRFTISRDDSKNTAYLQMNSLKTEDTAVYYCTRARFYYSDYGYAMDYWGQGTLVTVSS
As for B1, the IC50 ratio worked out at 0.12.

B2: h10A11 (IGKV4-1/IGHV3-73 K64R): humanized 10A11 heavy chain CDR point mutant (antibody, V domains shown)
VL: B1 VL
VH: B1 VH with K50R, K67R
Take B2: the IC50 ratio was determined as 0.54.

B3: h10A11 (IGKV4-1/IGHV3-73 Y99F): humanized 10A11 heavy chain CDR point mutant (antibody, V domains shown)
VL: B1 VL
VH: B1 VH with K50R, Y105F
For B3, the IC50 ratio is 0.80.

B4: h10A11 (IGKV4-1/IGHV3-73 S100T): humanized 10A11 heavy chain CDR point mutant (antibody, V domains shown)
VL: B1 VL
VH: B1 VH with K50R, S106T
With B4, the IC50 ratio is recorded as 0.64.

B5: h10A11 (IGKV4-1/IGHV3-73 D61E): humanized 10A11 heavy chain CDR point mutant (antibody, V domains shown)
VL: B1 VL
VH: B1 VH with K50R, D64E
B5: the IC50 ratio is 0.25.

B6: h10A11 (IGKV4-1/IGHV3-73 S52cT): humanized 10A11 heavy chain CDR point mutant (antibody, V domains shown)
VL: B1 VL
VH: B1 VH with K50R, S55T
With B6, the IC50 ratio is listed as 0.53.

B7: h10A11 (IGKV4-1/IGHV3-73 F97L): humanized 10A11 heavy chain CDR point mutant (antibody, V domains shown)
VL: B1 VL
VH: B1 VH with K50R, F103L
As for B7, the IC50 ratio entry is “n.d. (The n.d. (=not detectable) indicates that the IC50 value of the mutant is 10 nM or more)”.

B8: h10A11 (IGKV4-1/IGHV3-73 A56V): humanized 10A11 heavy chain CDR point mutant (antibody, V domains shown)
VL: B1 VL
VH: B1 VH with K50R, A59V
Consider B8, for which the IC50 ratio stood at 0.55.

B9: h10A11 (IGKV4-1/IGHV3-73 K52bR): humanized 10A11 heavy chain CDR point mutant (antibody, V domains shown)
VL: B1 VL
VH: B1 VH with K50R, K54R
In the case of B9, the IC50 ratio was found to be 0.47.

B10: h10A11 (IGKV4-1/IGHV3-73 G100cA): humanized 10A11 heavy chain CDR point mutant (antibody, V domains shown)
VL: B1 VL
VH: B1 VH with K50R, G109A
Take B10: the IC50 ratio amounted to 0.07.

B11: h10A11 (IGKV4-1/IGHV3-73 R52K): humanized 10A11 heavy chain CDR point mutant (antibody, V domains shown)
VL: B1 VL
VH: B1 VH with K50R, R52K
For the molecule B11, the IC50 ratio result is recorded as “n.d. (The n.d. (=not detectable) indicates that the IC50 value of the mutant is 10 nM or more)”.

B12: h10A11 (IGKV4-1/IGHV3-73 A60V): humanized 10A11 heavy chain CDR point mutant (antibody, V domains shown)
VL: B1 VL
VH: B1 VH with K50R, A63V
For the molecule B12, the IC50 ratio amounted to 0.67.

B13: h10A11 (IGKV4-1/IGHV3-73 I51L): humanized 10A11 heavy chain CDR point mutant (antibody, V domains shown)
VL: B1 VL
VH: B1 VH with K50R, I51L
For B13, the IC50 ratio is given as 0.22.

B14: h10A11 (IGKV4-1/IGHV3-73 Y100dF): humanized 10A11 heavy chain CDR point mutant (antibody, V domains shown)
VL: B1 VL
VH: B1 VH with K50R, Y110F
For the molecule B14, the IC50 ratio was 0.55.

B15: h10A11 (IGKV4-1/IGHV3-73 Y100bF): humanized 10A11 heavy chain CDR point mutant (antibody, V domains shown)
VL: B1 VL
VH: B1 VH with K50R, Y108F
Turning to B15, the IC50 ratio came to 0.75.

B16: h10A11 (IGKV4-1/IGHV3-73 Y55F): humanized 10A11 heavy chain CDR point mutant (antibody, V domains shown)
VL: B1 VL
VH: B1 VH with K50R, Y58F
For the molecule B16, the IC50 ratio is reported as 0.47.

B17: h10A11 (IGKV4-1/IGHV3-73 S62T): humanized 10A11 heavy chain CDR point mutant (antibody, V domains shown)
VL: B1 VL
VH: B1 VH with K50R, S65T
On to B17, for which the IC50 ratio is recorded as 1.60.

B18: h10A11 (IGKV4-1/IGHV3-73 T57S): humanized 10A11 heavy chain CDR point mutant (antibody, V domains shown)
VL: B1 VL
VH: B1 VH with K50R, T60S
Consider B18, for which the IC50 ratio is reported as 0.49.

B19: h10A11 (IGKV4-1/IGHV3-73 V63L): humanized 10A11 heavy chain CDR point mutant (antibody, V domains shown)
VL: B1 VL
VH: B1 VH with K50R, V66L
For B19, the IC50 ratio is reported as 0.56.

B20: h10A11 (IGKV4-1/IGHV3-73 D65E): humanized 10A11 heavy chain CDR point mutant (antibody, V domains shown)
VL: B1 VL
VH: B1 VH with K50R, D68E
Turning to B20, the IC50 ratio came to 1.30.

B21: h10A11 (IGKV4-1/IGHV3-73 N53Q): humanized 10A11 heavy chain CDR point mutant (antibody, V domains shown)
VL: B1 VL
VH: B1 VH with K50R, N56Q
As for B21, the IC50 ratio was determined as 0.03.

B22: h10A11 (IGKV4-1/IGHV3-73 D100aE): humanized 10A11 heavy chain CDR point mutant (antibody, V domains shown)
VL: B1 VL
VH: B1 VH with K50R, D107E
Regarding B22, the IC50 ratio turned out to be 0.30.

B23: h10A11 (IGKV4-1/IGHV3-73 Y59F): humanized 10A11 heavy chain CDR point mutant (antibody, V domains shown)
VL: B1 VL
VH: B1 VH with K50R, Y62F
Turning to B23, the IC50 ratio is 0.03.

B24: h10A11 (IGKV4-1/IGHV3-73 Y58F): humanized 10A11 heavy chain CDR point mutant (antibody, V domains shown)
VL: B1 VL
VH: B1 VH with K50R, Y61F
Consider B24, for which the IC50 ratio was 0.50.

B25: h10A11 (IGKV4-1/IGHV3-73 Y98F): humanized 10A11 heavy chain CDR point mutant (antibody, V domains shown)
VL: B1 VL
VH: B1 VH with K50R, Y104F
For the molecule B25, the IC50 ratio was determined as 0.07.

B26: h10A11 (IGKV4-1/IGHV3-73 R96K): humanized 10A11 heavy chain CDR point mutant (antibody, V domains shown)
VL: B1 VL
VH: B1 VH with K50R, R102K
For the molecule B26, the IC50 ratio result is given as “n.d. (The n.d. (=not detectable) indicates that the IC50 value of the mutant is 10 nM or more)”.

B27: h10A11 (IGKV4-1/IGHV3-73 S52aT): humanized 10A11 heavy chain CDR point mutant (antibody, V domains shown)
VL: B1 VL
VH: B1 VH with K50R, S53T
Regarding B27, the IC50 ratio was 0.22.
